# Experimental data: patent publication US20260285998 (published 2026)
# Residue numbers refer to the chain shown, from its start.
# T1: human BCMA (cell surface) (human)
# T1 chain: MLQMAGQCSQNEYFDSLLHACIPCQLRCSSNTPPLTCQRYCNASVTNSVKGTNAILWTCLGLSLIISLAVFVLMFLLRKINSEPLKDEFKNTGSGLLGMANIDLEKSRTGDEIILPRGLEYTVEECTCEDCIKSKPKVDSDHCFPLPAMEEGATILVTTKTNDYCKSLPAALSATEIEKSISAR
# T2: human BCMA R27P (human)
# T2 chain: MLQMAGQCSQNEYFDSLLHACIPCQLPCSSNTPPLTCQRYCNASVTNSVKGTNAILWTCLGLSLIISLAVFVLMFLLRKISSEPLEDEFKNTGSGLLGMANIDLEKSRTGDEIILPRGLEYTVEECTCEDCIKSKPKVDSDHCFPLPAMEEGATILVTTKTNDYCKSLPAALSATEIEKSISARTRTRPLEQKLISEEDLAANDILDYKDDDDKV
# T3: human BCMA S30del (human)
# T3 chain: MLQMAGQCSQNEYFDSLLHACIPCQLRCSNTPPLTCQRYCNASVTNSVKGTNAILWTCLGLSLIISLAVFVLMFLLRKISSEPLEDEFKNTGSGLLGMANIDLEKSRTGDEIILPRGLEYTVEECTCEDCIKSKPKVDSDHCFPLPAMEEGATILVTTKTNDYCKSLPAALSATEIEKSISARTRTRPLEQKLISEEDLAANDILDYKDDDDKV
# T4: human BCMA-Fc (human)
# T4 chain: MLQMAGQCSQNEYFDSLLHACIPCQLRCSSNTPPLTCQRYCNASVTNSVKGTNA
# B1: P1AG7409 BCMA arm (antibody, V domains shown)
# VH: QVQLVQSGAEVKKPGASVKVSCKASGYTFTNYWMHWVRQAPGQGLEWMGIIHPNSGSTNYNEKFQGRVTMTRDTSTSTVYMELSSLRSEDTAVYYCARGIYDYPFAYWGQGTLVTVSS
# VL: DIQMTQSPSSLSASVGDRVTITCRASESVSIHGTHLMHWYQQKPGKAPKLLIYAASNLESGVPSRFSGSGSGTDFTLTISSLQPEDFATYYCQQSIEDPYTFGGGTKVEIK
# B2: P1AG7400 BCMA arm (antibody, V domains shown)
# VH: B1 VH
# VL: B1 VL with N57S, E59Q, G72E
# B3: P1AH1062 (5D5 LM4) BCMA arm (antibody)
# chain 1: not shown
# chain 2: EIVLTQSPGTLSLSPGERATLSCKASQDIDDAINWYQQKPGQAPRLLIYDASLRATGIPDRFSGSGSGTDFTLTISRLEPEDFAVYYCQQSLRTPITFGQGTKLEIKRTVAAPSVFIFPPSDEQLKSGTASVVCLLNNFYPREAKVQWKVDNALQSGNSQESVTEQDSKDSTYSLSSTLTLSKADYEKHKVYACEVTHQGLSSPVTKSFNRGEC
# B4: P1AG7397 BCMA arm (antibody, V domains shown)
# VH: EVQLLESGGGLVQPGGSLRLSCAASGFTFSNAWMDWVRQAPGKGLEWVSQITAKSNNYATYYADSVKGRFTISRDNSKNTLYLQMNSLRAEDTAVYYCTDDGYHWGQGTLVTVSS
# VL: DIQMTQSPSSLSASVGDRVTITCRASEDIRNGLAWYQQKPGKAPKLLIYNANSLHTGVPSRFSGSGSGTDFTLTISSLQPEDFATYYCEDTSKYPYTFGQGTKLEIK
# B5: P1AG7422 BCMA arm (antibody, V domains shown)
# VH: B4 VH with L5V, Q13K, V48I, S49A, D64A, S65P, N76D, R89K, A90T
# VL: B4 VL with D1A
# B6: Teclistamab BCMA arm (antibody, V domains shown)
# VH: QLQLQESGPGLVKPSETLSLTCTVSGGSISSGSYFWGWIRQPPGKGLEWIGSIYYSGITYYNPSLKSRVTISVDTSKNQFSLKLSSVTAADTAVYYCARHDGAVAGLFDYWGQGTLVTVSS
# VL: SYVLTQPPSVSVAPGQTARITCGGNNIGSKSVHWYQQPPGQAPVVVVYDDSDRPSGIPERFSGSNSGNTATLTISRVEAGDEAVYYCQVWDSSSDHVVFGGGTKLTVLG
# B7: P1AG5026 (E04_VH1b/VL1a) (antibody, V domains shown)
# VH: B1 VH with R72V, T74K
# VL: B1 VL
# B8: P1AG5043 (E04_VH1a/VL1d) (antibody, V domains shown)
# VH: B1 VH
# VL: B1 VL with E59Q, G72E
# B9: P1AG5034 (E04_VH1b/VL1e) (antibody, V domains shown)
# VH: B1 VH with R72V, T74K
# VL: B1 VL with N57S, E59Q
# B10: P1AG5059 (E04_VH1a/VL1g) (antibody, V domains shown)
# VH: B1 VH
# VL: B1 VL with Y91F
# B11: P1AG5060 (E04_VH1b/VL1f) (antibody, V domains shown)
# VH: B1 VH with R72V, T74K
# VL: B1 VL with N57S, E59Q, G72E
# B12: P1AG5021 (E04_VH1b/VL1g) (antibody, V domains shown)
# VH: B1 VH with R72V, T74K
# VL: B1 VL with Y91F
# B13: P1AG5067 (54_VH1a/VL1a_L1_pGL) (antibody, V domains shown)
# VH: B4 VH with L5V, Q13K, S49G, D64A, S65P, N76D, R89K, A90T
# VL: B4 VL with D1A, G32D, A34G
# B14: P1AG5014 (54_VH1a_Y292D/VL1a_L1_pGL) (antibody, V domains shown)
# VH: B4 VH with L5V, Q13K, S49G, Y61D, D64A, S65P, N76D, R89K, A90T
# VL: B4 VL with D1A, G32D, A34G
# B15: P1AG5028 (54_VH2a/VL1a) (antibody, V domains shown)
# VH: B4 VH
# VL: B4 VL with D1A
# B16: P1AG5030 (54_VH1b/VL2a) (antibody, V domains shown)
# VH: B4 VH with L5V, Q13K, V48I, S49A, D64A, S65P, N76D, R89K, A90T
# VL: B4 VL
# Target: T1, human BCMA (cell surface)
# Test: FACS
row,Binder,EC50
1,B1,21.6 nM
2,B2,41.5 nM
3,B3,103 nM
4,B4,23.7 nM
5,B5,10.8 nM

# Target: T2, human BCMA R27P
# Test: FACS
row,Binder,binding result
1,B6,no binding

# Target: T3, human BCMA S30del
# Test: FACS
row,Binder,binding result
1,B6,no binding

# Target: T4, human BCMA-Fc
# Test: SPR, 25C
row,Binder,Kd
1,B7,2.7 nM
2,B8,2.6 nM
3,B9,3.2 nM
4,B10,2.3 nM
5,B11,3.2 nM
6,B12,2.8 nM
7,B13,3.4 nM
8,B14,1.7 nM
9,B15,2.7 nM
10,B16,1.3 nM

# Target: cynomolgus BCMA-Fc (cynomolgus)
# Test: SPR, 25C
# cynomolgus BCMA-Fc (cynomolgus), sequence (chain, as listed by the source): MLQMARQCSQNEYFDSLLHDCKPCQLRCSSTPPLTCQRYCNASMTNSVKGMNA
row,Binder,Kd
1,B7,33 nM
2,B8,14 nM
3,B9,32 nM
4,B10,30 nM
5,B11,14 nM
6,B12,35 nM
7,B13,1.7 nM
8,B14,0.11 nM
9,B15,3.8 nM
10,B16,2.2 nM
